Key:
AcrB = molecular target: T1, AcrB (Escherichia coli, UniProt P31224); test: fluorescence polarization titration of R6G with AcrB SMALP; format: binding
T1 construct: full-length AcrB with C-terminal octahistidine tag (kept); expressed in E. coli, extracted with styrene maleic acid co-polymer into SMALPs, cobalt resin purified; 110 kDa band; homotrimer (~360 kDa)
Text: fluorescence polarization titration of R6G with AcrB SMALP on AcrB | measure the Kd value of rhodamine 6G binding.

[1] = molecular target: Escherichia coli multidrug transporter AcrB bearing a C-terminal octahistidine tag, in SMA lipid particles (SMALPs) (Escherichia coli) (UniProt P31224); test: AUC; protomers to trimer; sedimentation velocity, 0.5 mg/mL AcrB-SMALP, 50 mM Tris pH 8 with 10 mM or 500 mM NaCl, 40,000 rpm, 20 h, 4 °C, c(s) analysis
[2] = molecular target: Escherichia coli multidrug transporter AcrB bearing a C-terminal octahistidine tag, in SMA lipid particles (SMALPs) (Escherichia coli) (UniProt P31224); test: negative stain electron microscopy (single particle, 3D reconstruction); protomers to trimer; AcrB SMALPs ~20 ug/mL on carbon-coated grids, 1% uranyl acetate; 6884 singlet particles; refined with C1 and with C3 symmetry

T1 sequence (P31224 whole entry): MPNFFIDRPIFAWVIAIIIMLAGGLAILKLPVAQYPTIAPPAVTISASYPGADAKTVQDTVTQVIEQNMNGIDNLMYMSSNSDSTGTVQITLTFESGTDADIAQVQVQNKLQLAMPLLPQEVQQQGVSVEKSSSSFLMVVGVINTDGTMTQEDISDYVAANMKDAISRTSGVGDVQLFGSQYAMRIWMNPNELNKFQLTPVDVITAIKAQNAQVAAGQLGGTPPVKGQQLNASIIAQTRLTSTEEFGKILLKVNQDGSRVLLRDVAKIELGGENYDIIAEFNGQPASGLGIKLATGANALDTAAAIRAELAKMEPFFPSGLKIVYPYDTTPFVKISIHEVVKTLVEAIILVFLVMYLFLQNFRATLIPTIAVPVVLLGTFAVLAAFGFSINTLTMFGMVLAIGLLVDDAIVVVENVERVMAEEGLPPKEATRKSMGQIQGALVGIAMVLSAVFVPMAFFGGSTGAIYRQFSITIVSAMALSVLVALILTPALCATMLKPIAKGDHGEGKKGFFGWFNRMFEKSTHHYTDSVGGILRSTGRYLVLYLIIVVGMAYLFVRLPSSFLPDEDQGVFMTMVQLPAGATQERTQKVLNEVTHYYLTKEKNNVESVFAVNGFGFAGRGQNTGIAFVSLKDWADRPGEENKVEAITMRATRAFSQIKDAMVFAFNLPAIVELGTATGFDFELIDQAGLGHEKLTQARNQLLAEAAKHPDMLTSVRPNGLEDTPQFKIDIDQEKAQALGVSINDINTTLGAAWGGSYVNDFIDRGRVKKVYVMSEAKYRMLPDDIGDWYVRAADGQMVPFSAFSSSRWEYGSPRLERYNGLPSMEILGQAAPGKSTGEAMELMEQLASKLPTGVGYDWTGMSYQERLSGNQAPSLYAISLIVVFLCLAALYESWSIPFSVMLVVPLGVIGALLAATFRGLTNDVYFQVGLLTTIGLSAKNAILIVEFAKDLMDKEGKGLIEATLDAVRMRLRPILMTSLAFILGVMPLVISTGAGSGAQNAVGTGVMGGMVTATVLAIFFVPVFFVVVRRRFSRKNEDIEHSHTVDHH

| Molecule | Kd (AcrB) | stoichiometry N [1] | stoichiometry N [2] |
| --- | --- | --- | --- |
| CCN=c1cc2oc3cc(NCC)c(C)cc3c(-c3ccccc3C(=O)OCC)c-2cc1C [rhodamine 6G] | 52 ± 6.6 nM |  |  |
| Escherichia coli multidrug transporter AcrB bearing a C-terminal octahistidine tag, in SMA lipid particles (SMALPs) (from UniProt P31224 1-1049) (natural protein) |  | 3 | 3 |

Reference: publication PMC4331651, “The use of SMALPs as a novel membrane protein scaffold for structure study by negative stain electron microscopy” (Biochimica et Biophysica Acta, 2015)
